Results from the supplement of paper PMC10126150.
± gives the standard deviation of the averaged measurements.
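Note: ATP exposure 15 min at 22 °C before imaging.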

What follows are sequences tested on ATP (assay: switch fluorescence ratio, 500 uM ATP over buffer (Cy3 cluster intensity, sum of 5 cycles each) (fold (ratio)); higher = stronger signal-on switching upon ATP binding; sequences stand for … in TCGTCGGCAGCGTCAGATGTGTATAAGAGACAGTTTTTTTTTTTTTTTTTTTTTTTTT…TC). Conditions: aptamer strand: ATP DNA aptamer (quencher-CACCTGGGGGAGTATTGCGGAGGAAGG + anchor), 100 nM annealed; ATP concentration: 500 uM.
Method in brief: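 Cy3-labelled switching-strand clusters on a modified Illumina MiSeq flow-cell were annealed to 100 nM quencher-labelled ATP aptamer, imaged in selection buffer, then imaged after 15 min with 500 uM ATP at 22 °C. Five buffer/ATP cycles ran, with NaOH stripping and re-annealing between them. The fluorescence ratio is summed target-cycle over summed buffer-cycle Cy3 intensity per cluster, averaged per switch-domain sequence. Clusters outside 100-1000 RFU were excluded.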
TCCTGATGGC was tested, and the switch fluorescence ratio was 0.985 ± 0.016.
TCCTGCGCGT showed a switch fluorescence ratio of 4.52 ± 0.71.
Work on TCCTGGGCTA yielded a switch fluorescence ratio of 1.57 ± 0.019.
Work on TCCTGGGGGA yielded a switch fluorescence ratio of 1.15 ± 0.22.
For TCCTGTGCTG, the switch fluorescence ratio was 1.09 ± 0.043.
Sequence TCCTGTTTTT has a switch fluorescence ratio of 1.01 ± 0.056.
TCCTTAAAAA was tested, and the switch fluorescence ratio was 1.1 ± 0.06.
TCCTTAATTT showed a switch fluorescence ratio of 1.02 ± 0.055.
Work on TCCTTCAACT yielded a switch fluorescence ratio of 1.08 ± 0.045.
TCCTTGACTT showed a switch fluorescence ratio of 1.15 ± 0.26.
TCCTTGGAGG showed a switch fluorescence ratio of 0.989 ± 0.028.
In the case of TCCTTTAATG, the switch fluorescence ratio is reported as 0.9917 ± 0.0073.
Work on TCCTTTAGGT yielded a switch fluorescence ratio of 0.993 ± 0.053.
With TCCTTTGTGG the switch fluorescence ratio was 1.02 ± 0.021.
In the case of TCGAAGAATG, the switch fluorescence ratio is reported as 1.005 ± 0.002.
TCGAAGGGTT showed a switch fluorescence ratio of 0.993 ± 0.028.
In the case of TCGAAGTAGG, the switch fluorescence ratio is reported as 1.46 ± 0.71.
In the case of TCGAAGTGTT, the switch fluorescence ratio is reported as 0.989 ± 0.027.
TCGACATTAT gave a switch fluorescence ratio of 1.034 ± 0.0055.
TCGACGTCTC showed a switch fluorescence ratio of 1.29 ± 0.16.
With TCGACGTTGT the switch fluorescence ratio was 1.1 ± 0.036.
With TCGACGTTTG the switch fluorescence ratio was 1.01 ± 0.011.
For TCGACTCACT, the switch fluorescence ratio was 1.2 ± 0.013.
In the case of TCGAGAGATA, the switch fluorescence ratio is reported as 1 ± 0.054.
In the case of TCGAGGACTA, the switch fluorescence ratio is reported as 0.999 ± 0.032.
TCGAGGCGGA gave a switch fluorescence ratio of 0.985 ± 0.049.
Work on TCGAGGGCAG yielded a switch fluorescence ratio of 1.01 ± 0.029.
TCGAGGGGGA showed a switch fluorescence ratio of 1.31 ± 0.63.
Sequence TCGAGTAAGG has a switch fluorescence ratio of 1.18 ± 0.28.
TCGAGTCATT was tested, and the switch fluorescence ratio was 0.9913 ± 0.005.
TCGAGTCCTA was tested, and the switch fluorescence ratio was 0.9857 ± 0.0037.
Sequence TCGAGTGTGC has a switch fluorescence ratio of 1.06 ± 0.021.
TCGAGTTCTT gave a switch fluorescence ratio of 0.999 ± 0.012.
Sequence TCGATCCAAC has a switch fluorescence ratio of 1.064 ± 0.0065.
With TCGATGAGGG the switch fluorescence ratio was 1.02 ± 0.026.
In the case of TCGATGGCAT, the switch fluorescence ratio is reported as 1.31 ± 0.065.
Work on TCGATGGCTT yielded a switch fluorescence ratio of 1.05 ± 0.019.
TCGATGGGTG gave a switch fluorescence ratio of 1.01 ± 0.032.
TCGATGTCGT gave a switch fluorescence ratio of 0.9927 ± 0.0059.
TCGATTAATT showed a switch fluorescence ratio of 1.1 ± 0.079.
For TCGATTTGAT, the switch fluorescence ratio was 0.98541 ± 0.00062.
TCGCAAAATA showed a switch fluorescence ratio of 2.47 ± 1.2.
TCGCAATGTT showed a switch fluorescence ratio of 3.58 ± 1.
TCGCAGGGTG gave a switch fluorescence ratio of 1.43 ± 0.47.
TCGCCATCCT showed a switch fluorescence ratio of 1.09 ± 0.019.
TCGCCTTTGG was tested, and the switch fluorescence ratio was 1.07 ± 0.072.
In the case of TCGCGAAATT, the switch fluorescence ratio is reported as 0.9763 ± 0.0042.
TCGCGAAGGG gave a switch fluorescence ratio of 1.01 ± 0.013.
With TCGCGATCAG the switch fluorescence ratio was 1.12 ± 0.042.
In the case of TCGCGCCGGT, the switch fluorescence ratio is reported as 1.005 ± 0.0062.
Work on TCGCGGAATT yielded a switch fluorescence ratio of 1.01 ± 0.066.
For TCGCGGCAGT, the switch fluorescence ratio was 1.04 ± 0.015.
Sequence TCGCGGGAGA has a switch fluorescence ratio of 1.05 ± 0.023.
In the case of TCGCGGGGGA, the switch fluorescence ratio is reported as 1.01 ± 0.037.
In the case of TCGCGGGGTG, the switch fluorescence ratio is reported as 1.02 ± 0.056.
In the case of TCGCGGGTGG, the switch fluorescence ratio is reported as 1.03 ± 0.021.
TCGCTACTCG was tested, and the switch fluorescence ratio was 3.07 ± 0.62.
For TCGCTCGCAT, the switch fluorescence ratio was 3.68 ± 0.73.
TCGCTTACTG gave a switch fluorescence ratio of 1.3 ± 0.053.
For TCGCTTTGCT, the switch fluorescence ratio was 1.31 ± 0.42.
Sequence TCGCTTTTTT has a switch fluorescence ratio of 1.03 ± 0.068.
For TCGGAATCTG, the switch fluorescence ratio was 1 ± 0.1.
For TCGGACCCTA, the switch fluorescence ratio was 1.03 ± 0.041.
TCGGACGTCG showed a switch fluorescence ratio of 1.07 ± 0.019.
In the case of TCGGACGTGC, the switch fluorescence ratio is reported as 1.35 ± 0.1.
TCGGAGTAAC showed a switch fluorescence ratio of 1.667 ± 0.0081.
For TCGGAGTTTA, the switch fluorescence ratio was 1.04 ± 0.016.
For TCGGATAGGT, the switch fluorescence ratio was 1.02 ± 0.025.
TCGGATGTCA showed a switch fluorescence ratio of 0.965 ± 0.049.
Work on TCGGATTAGT yielded a switch fluorescence ratio of 1 ± 0.025.
TCGGATTGTG was tested, and the switch fluorescence ratio was 1.01 ± 0.021.
With TCGGCAATGT the switch fluorescence ratio was 2.32 ± 1.6.
For TCGGCAGGGG, the switch fluorescence ratio was 1.09 ± 0.035.
With TCGGCCATGG the switch fluorescence ratio was 0.985 ± 0.031.
With TCGGCGGACA the switch fluorescence ratio was 1 ± 0.023.
TCGGCGGTTT showed a switch fluorescence ratio of 0.977 ± 0.058.
In the case of TCGGCTATGA, the switch fluorescence ratio is reported as 1.03 ± 0.021.
In the case of TCGGGAACGA, the switch fluorescence ratio is reported as 0.999 ± 0.028.
TCGGGACATC gave a switch fluorescence ratio of 1.03 ± 0.032.
Sequence TCGGGAGCCT has a switch fluorescence ratio of 0.973 ± 0.015.
TCGGGAGGGG showed a switch fluorescence ratio of 0.989 ± 0.033.
Sequence TCGGGAGTAC has a switch fluorescence ratio of 1.01 ± 0.015.
In the case of TCGGGATCTG, the switch fluorescence ratio is reported as 0.997 ± 0.018.
TCGGGATGGC was tested, and the switch fluorescence ratio was 1.03 ± 0.024.
In the case of TCGGGATTTA, the switch fluorescence ratio is reported as 1.02 ± 0.033.
For TCGGGCAGGT, the switch fluorescence ratio was 1.06 ± 0.064.
Sequence TCGGGGATCG has a switch fluorescence ratio of 1.006 ± 0.0025.
TCGGGGCCAA showed a switch fluorescence ratio of 0.991 ± 0.019.
In the case of TCGGGGGAAT, the switch fluorescence ratio is reported as 1.11 ± 0.14.
Work on TCGGGGGCTG yielded a switch fluorescence ratio of 0.9799 ± 0.0077.
For TCGGGGGGCA, the switch fluorescence ratio was 0.992 ± 0.028.
TCGGGGGTCC was tested, and the switch fluorescence ratio was 1 ± 0.066.
TCGGGGTAGC showed a switch fluorescence ratio of 0.974 ± 0.025.
TCGGGGTCGG showed a switch fluorescence ratio of 1.03 ± 0.016.
TCGGGGTCGT gave a switch fluorescence ratio of 0.9859 ± 0.0065.
TCGGGGTTA was tested, and the switch fluorescence ratio was 0.979 ± 0.029.
TCGGGGTTCA was tested, and the switch fluorescence ratio was 1.04 ± 0.03.
Work on TCGGGGTTGT yielded a switch fluorescence ratio of 1.01 ± 0.087.
In the case of TCGGGTAAGC, the switch fluorescence ratio is reported as 1.014 ± 0.0052.
With TCGGGTACGT the switch fluorescence ratio was 0.967 ± 0.032.
